This note sets out measurements from PMC7473855.

The experiment deals with SARS-CoV-2 prefusion-stabilized spike ectodomain with a C-terminal T4 fibritin trimerization motif (SARS-CoV-2) (UniProt P0DTC2). Description: cryo-EM structure.

Ty1 nanobody (VHH), sequence (VHH): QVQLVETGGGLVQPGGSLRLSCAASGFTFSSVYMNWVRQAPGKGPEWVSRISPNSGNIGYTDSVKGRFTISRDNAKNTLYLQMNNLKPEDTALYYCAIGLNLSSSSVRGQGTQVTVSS

As for Ty1 nanobody (VHH), the stoichiometry N (Ty1 per spike trimer) came to 3.
